Assay results from PMC12416549 (2024).
Changes are numbered by the printed parent chain. In names and notes the source's numbering stands.

B1: Y13Q (designed binder)
chain: SMEEEVEKAAKEQEKKKKEAIEKHLEKLKAKDKEAAERFLKELEEAAKEYAKDEAKTMSEEEAKRRAKKYKEKVLLSELSEEEQKEIKEAEEKLVRTILKYVEEAAK
B2: K27L (designed binder)
chain: B1 chain with Q13Y, K27L
B3: A20L (designed binder)
chain: B1 chain with Q13Y, A20L
B4: K8E (designed binder)
chain: B1 chain with K8E, Q13Y
B5: A10M (designed binder)
chain: B1 chain with A10M, Q13Y
B6: K8L (designed binder)
chain: B1 chain with K8L, Q13Y
B7: A9R (designed binder)
chain: B1 chain with A9R, Q13Y
B8: E3Y (designed binder)
chain: B1 chain with E3Y, Q13Y
B9: L75I (designed binder)
chain: B1 chain with Q13Y, L75I
B10: K107P (designed binder)
chain: B1 chain with Q13Y, K107P
B11: E82V (designed binder)
chain: B1 chain with Q13Y, E82V
B12: S1F (designed binder)
chain: B1 chain with S1F, Q13Y
B13: K73L (designed binder)
chain: B1 chain with Q13Y, K73L
B14: A30R (designed binder)
chain: B1 chain with Q13Y, A30R
B15: E14H (designed binder)
chain: B1 chain with Q13Y, E14H
B16: L25P (designed binder)
chain: B1 chain with Q13Y, L25P
B17: D53I (designed binder)
chain: B1 chain with Q13Y, D53I
B18: A10R (designed binder)
chain: B1 chain with A10R, Q13Y
B19: I87S (designed binder)
chain: B1 chain with Q13Y, I87S
B20: E78K (designed binder)
chain: B1 chain with Q13Y, E78K
B21: A36D (designed binder)
chain: B1 chain with Q13Y, A36D
B22: A35P (designed binder)
chain: B1 chain with Q13Y, A35P
B23: E81H (designed binder)
chain: B1 chain with Q13Y, E81H
B24: Y13A (designed binder)
chain: B1 chain with Q13A
B25: E14Q (designed binder)
chain: B1 chain with Q13Y, E14Q
B26: K93Q (designed binder)
chain: B1 chain with Q13Y, K93Q
B27: L76N (designed binder)
chain: B1 chain with Q13Y, L76N
B28: T97V (designed binder)
chain: B1 chain with Q13Y, T97V
B29: T57M (designed binder)
chain: B1 chain with Q13Y, T57M
B30: E44K (designed binder)
chain: B1 chain with Q13Y, E44K
B31: V74D (designed binder)
chain: B1 chain with Q13Y, V74D
B32: A106K (designed binder)
chain: B1 chain with Q13Y, A106K
B33: H24S (designed binder)
chain: B1 chain with Q13Y, H24S
B34: K85N (designed binder)
chain: B1 chain with Q13Y, K85N
B35: K69N (designed binder)
chain: B1 chain with Q13Y, K69N
B36: A106G (designed binder)
chain: B1 chain with Q13Y, A106G
B37: E83G (designed binder)
chain: B1 chain with Q13Y, E83G
B38: K29G (designed binder)
chain: B1 chain with Q13Y, K29G
B39: T57V (designed binder)
chain: B1 chain with Q13Y, T57V
B40: M58T (designed binder)
chain: B1 chain with Q13Y, M58T
B41: K71D (designed binder)
chain: B1 chain with Q13Y, K71D
B42: K8C (designed binder)
chain: B1 chain with K8C, Q13Y
B43: K68P (designed binder)
chain: B1 chain with Q13Y, K68P
B44: Y70I (designed binder)
chain: B1 chain with Q13Y, Y70I
B45: Y70S (designed binder)
chain: B1 chain with Q13Y, Y70S
B46: E37A (designed binder)
chain: B1 chain with Q13Y, E37A
B47: L28M (designed binder)
chain: B1 chain with Q13Y, L28M
B48: A20D (designed binder)
chain: B1 chain with Q13Y, A20D
B49: Y50L (designed binder)
chain: B1 chain with Q13Y, Y50L
B50: R65N (designed binder)
chain: B1 chain with Q13Y, R65N
B51: K93W (designed binder)
chain: B1 chain with Q13Y, K93W
B52: E34S (designed binder)
chain: B1 chain with Q13Y, E34S
B53: K15Y (designed binder)
chain: B1 chain with Q13Y, K15Y
B54: K56H (designed binder)
chain: B1 chain with Q13Y, K56H
B55: A10V (designed binder)
chain: B1 chain with A10V, Q13Y
B56: E5P (designed binder)
chain: B1 chain with E5P, Q13Y
B57: A51W (designed binder)
chain: B1 chain with Q13Y, A51W
B58: K48A (designed binder)
chain: B1 chain with Q13Y, K48A
B59: K11Q (designed binder)
chain: B1 chain with K11Q, Q13Y

Molecular target: T1, TNFR1 (Homo sapiens, UniProt P19438)
T1 chain: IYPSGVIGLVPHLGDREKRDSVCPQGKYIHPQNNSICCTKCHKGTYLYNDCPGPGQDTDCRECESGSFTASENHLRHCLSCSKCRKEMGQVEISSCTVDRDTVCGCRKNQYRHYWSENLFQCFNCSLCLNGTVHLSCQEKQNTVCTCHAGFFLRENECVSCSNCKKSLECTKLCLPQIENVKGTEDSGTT
Test: yeast display SC50

Binder | apparent Kd (screen) [nM]
B1 | 1.69
B2 | 1.16
B3 | 0.405
B4 | 1.54
B5 | 2.73
B6 | 0.718
B7 | 0.335
B8 | 5.84
B9 | 0.79
B10 | 0.956
B11 | 0.539
B12 | 4.39
B13 | 7.07
B14 | 0.79
B15 | 2.73
B16 | 8.56
B17 | 12.5
B18 | 0.446
B19 | 12.5
B20 | 4.83

Binder | apparent Kd (screen) [nM]
B21 | 0.446
B22 | 1.4
B23 | 0.593
B24 | 0.49
B25 | 4.83
B26 | 0.49
B27 | 2.73
B28 | 2.73
B29 | 0.446
B30 | 0.956
B31 | 0.405
B32 | 0.593
B33 | 0.869
B34 | 0.446
B35 | 2.48
B36 | 0.79
B37 | 1.69
B38 | 0.446
B39 | 0.49
B40 | 4.83

Binder | apparent Kd (screen) [nM]
B41 | 16.7
B42 | 0.956
B43 | 7.07
B44 | 20.2
B45 | 4.83
B46 | 0.49
B47 | 0.956
B48 | 1.16
B49 | 0.79
B50 | 1.4
B51 | 2.73
B52 | 0.718
B53 | 0.446
B54 | 4.83
B55 | 0.49
B56 | 0.446
B57 | 0.49
B58 | 0.446
B59 | 0.446
